From patent US20180186893A1 (NATIONAL RESEARCH COUNCIL OF CANADA, published 2018) come the findings set out here.

One experiment has as its target T1, rhCA-IV (human, UniProt P22748 19-283, limits assumed).
T1 construct: Bought; construct not described; also called recombinant human CA-IV
The experiment can be described thus: SPR, antibody captured by anti-human Fc. In general terms: Surface plasmon resonance follows binding to a sensor surface in real time, without labels.

The target of a further experiment is T2, rhCA-XII (human, UniProt O43570 25-291, limits assumed).
T2 construct: Bought; construct not described; also called recombinant human CA-XII (Sino Biologics)
T2 sequence (O43570 25-291 limits assumed): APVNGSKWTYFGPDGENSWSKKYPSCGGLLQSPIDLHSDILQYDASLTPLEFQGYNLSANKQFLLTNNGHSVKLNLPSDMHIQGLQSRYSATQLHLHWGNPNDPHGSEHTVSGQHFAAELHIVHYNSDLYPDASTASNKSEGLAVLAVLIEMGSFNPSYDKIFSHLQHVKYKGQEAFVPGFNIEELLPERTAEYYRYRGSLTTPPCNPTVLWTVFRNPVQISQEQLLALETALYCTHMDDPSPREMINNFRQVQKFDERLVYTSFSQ
The experiment in a line: SPR, antibody captured by anti-human Fc.

For the next experiment, the target named is T3, rhCA-XIV (human, UniProt Q9ULX7 16-290, limits assumed).
T3 construct: Bought; construct not described; also called recombinant human CA-XIV
T3 sequence (Q9ULX7 16-290 limits assumed): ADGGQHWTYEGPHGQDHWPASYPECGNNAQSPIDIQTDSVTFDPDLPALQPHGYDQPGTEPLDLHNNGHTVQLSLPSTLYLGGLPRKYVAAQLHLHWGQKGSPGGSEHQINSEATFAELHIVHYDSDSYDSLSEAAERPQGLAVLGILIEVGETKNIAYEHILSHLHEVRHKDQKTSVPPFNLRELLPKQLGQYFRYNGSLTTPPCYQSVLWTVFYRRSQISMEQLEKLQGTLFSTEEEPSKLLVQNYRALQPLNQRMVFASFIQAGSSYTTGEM
The experiment in a line: SPR, antibody captured by anti-human Fc.

Another experiment concerns the target T4, rmCA-IX (murine, UniProt Q8VHB5 32-389, limits assumed).
T4 construct: Bought; construct not described; also called recombinant murine (rm)CA-IX
The experiment in a line: SPR, antibody captured by anti-human Fc.

Experiment [1] addresses T5, human CA-XII extracellular domain (ECD) (human, UniProt O43570 25-301).
T5 construct: extracellular domain
The experiment in a line: SPR, antibody captured by anti-human Fc.

The target of experiment [2] is T6, hCA-IX PG domain fragment #1 (aa 37-51) displayed on yeast as Aga2-HA-CA9-MYC (pPNL6), clone 1 A + B (human, UniProt P32781 19-87 (Saccharomyces cerevisiae entry)).
T6 construct: not shown: HA tag; MYC tag
T6 sequence (P32781 19-87 limits assumed): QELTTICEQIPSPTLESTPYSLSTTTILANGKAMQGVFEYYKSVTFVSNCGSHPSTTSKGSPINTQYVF
The experiment in a line: YSD whole yeast cell ELISA, native PG tiling fragment.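 Further: monoclonal antibody binding to intact yeast cells displaying the fragment, read by ELISA, with the anti-CA-IX signal normalized against the anti-MYC display signal.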 For orientation: In an ELISA, binding on a coated surface is turned into a signal by an enzyme label.

In experiment [3] the target is T7, hCA-IX PG domain fragment #2 (aa 47-61) displayed on yeast as Aga2-HA-CA9-MYC (pPNL6), clone 2 A + B (human, UniProt P32781 19-87 (Saccharomyces cerevisiae entry)).
T7 construct: not shown: HA tag; MYC tag
T7 sequence (P32781 19-87 limits assumed): as above
Described as above.

The target of experiment [4] is T8, hCA-IX PG domain fragment #3 (aa 57-71) displayed on yeast as Aga2-HA-CA9-MYC (pPNL6), clone 3 A + B (human, UniProt P32781 19-87 (Saccharomyces cerevisiae entry)).
T8 construct: not shown: HA tag; MYC tag
T8 sequence (P32781 19-87 limits assumed): as above
Described as above.

For experiment [5], the target named is T9, hCA-IX PG domain fragment #4 (aa 67-81) displayed on yeast as Aga2-HA-CA9-MYC (pPNL6), clone 4 A + B (human, UniProt P32781 19-87 (Saccharomyces cerevisiae entry)).
T9 construct: not shown: HA tag; MYC tag
T9 sequence (P32781 19-87 limits assumed): as above
The experiment is described as above.

The target in experiment [6] is T10, hCA-IX PG domain fragment #7 (aa 97-111) displayed on yeast as Aga2-HA-CA9-MYC (pPNL6), clone 7 A + B (human, UniProt P32781 19-87 (Saccharomyces cerevisiae entry)).
T10 construct: not shown: HA tag; MYC tag
T10 sequence (P32781 19-87 limits assumed): as above
Described as above.

In experiment [7] the target is T11, hCA-IX PG domain fragment #9 (aa 117-131) displayed on yeast as Aga2-HA-CA9-MYC (pPNL6), clone 9 A + B (human, UniProt P32781 19-87 (Saccharomyces cerevisiae entry)).
T11 construct: not shown: HA tag; MYC tag
T11 sequence (P32781 19-87 limits assumed): as above
Described as above.

Experiment [8] has as its target T12, hCA-IX PG domain fragment #10 (aa 126-140) displayed on yeast as Aga2-HA-CA9-MYC (pPNL6), clone 10 A + B (human, UniProt P32781 19-87 (Saccharomyces cerevisiae entry)).
T12 construct: not shown: HA tag; MYC tag
Described as above.

The target in experiment [9] is T13, hCA-IX PG domain fragment #11 (aa 37-71) displayed on yeast as Aga2-HA-CA9-MYC (pPNL6), clone 11 A + B (human, UniProt P32781 19-87 (Saccharomyces cerevisiae entry)).
T13 construct: not shown: HA tag; MYC tag
T13 sequence (P32781 19-87 limits assumed, chain 1 of 2): as the sequence (P32781 19-87 limits assumed) above
T13 sequence (chain (part 2 of 2), as listed by the source limits assumed, chain 2 of 2): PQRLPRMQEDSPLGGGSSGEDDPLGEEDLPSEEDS
The description is as above.

In experiment [10] the target is T14, hCA-IX fragment 2 (aa 38-136, +PG+) displayed on yeast as Aga2-HA-CA9-MYC (pPNL6), clone 2B (human, UniProt P32781 19-87; Q16790 38-136).
T14 construct: not shown: HA tag; MYC tag
T14 sequence (P32781 19-87 limits assumed, chain 1 of 2, other chains not shown): as the sequence (P32781 19-87 limits assumed) above
The experiment can be described thus: YSD whole yeast cell ELISA, native, normalised to anti-MYC.

Experiment [11] addresses T15, hCA-IX fragment 8 (aa 38-414, +PG+CA+) displayed on yeast as Aga2-HA-CA9-MYC (pPNL6), clone 8B (human, UniProt P32781 19-87; Q16790 38-414). The experiment is described as above.
Experiment [12] addresses T16, hCA-IX PG domain fragment #5 (aa 77-91) displayed on yeast as Aga2-HA-CA9-MYC (pPNL6), clone 5 A + B (human, UniProt P32781 19-87 (Saccharomyces cerevisiae entry)).
T16 construct: not shown: HA tag; MYC tag
The experiment in a line: YSD whole yeast cell ELISA, native PG tiling fragment, normalised to anti-MYC.

The target in experiment [13] is T17, hCA-IX PG domain fragment #6 (aa 87-101) displayed on yeast as Aga2-HA-CA9-MYC (pPNL6), clone 6 A + B (human, UniProt P32781 19-87 (Saccharomyces cerevisiae entry)).
T17 construct: not shown: HA tag; MYC tag
T17 sequence (P32781 19-87 limits assumed): as above
The description is as above.

Experiment [14] concerns the target T18, hCA-IX PG domain fragment #12 (aa 67-111) displayed on yeast as Aga2-HA-CA9-MYC (pPNL6), clone 12 A + B (human, UniProt P32781 19-87 (Saccharomyces cerevisiae entry)).
T18 construct: not shown: HA tag; MYC tag
The experiment is described as above.

For experiment [15], the target named is T19, hCA-IX PG domain fragment #14 (aa 37-140) displayed on yeast as Aga2-HA-CA9-MYC (pPNL6), clone 14 A + B (human, UniProt P32781 19-87 (Saccharomyces cerevisiae entry)).
T19 construct: not shown: HA tag; MYC tag
T19 sequence (P32781 19-87 limits assumed, chain 1 of 2): as the sequence (P32781 19-87 limits assumed) above
T19 sequence (chain (part 2 of 2), as listed by the source limits assumed, chain 2 of 2): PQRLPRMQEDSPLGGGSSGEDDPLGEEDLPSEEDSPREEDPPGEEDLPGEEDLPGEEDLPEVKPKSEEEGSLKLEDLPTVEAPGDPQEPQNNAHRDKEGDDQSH
Described as above.

Experiment [16] has as its target T14, hCA-IX fragment 2 (aa 38-136, +PG+) …. The experiment can be described thus: YSD whole yeast cell ELISA, native.
Experiment [17] addresses T16, hCA-IX PG domain fragment #5 (aa 77-91) …. The experiment in a line: YSD whole yeast cell ELISA, native PG tiling fragment.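 Further: monoclonal antibody binding to intact yeast cells displaying the fragment, read by ELISA, with the anti-CA-IX signal normalized against the anti-MYC display signal.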
Experiment [18] concerns the target T17, hCA-IX PG domain fragment #6 (aa …). The description is as above.
Experiment [19] deals with T20, hCA-IX PG domain fragment #8 (aa 107-121) displayed on yeast as Aga2-HA-CA9-MYC (pPNL6), clone 8 A + B (human, UniProt P32781 19-87 (Saccharomyces cerevisiae entry)).
T20 construct: not shown: HA tag; MYC tag
T20 sequence (P32781 19-87 limits assumed): as the sequence (P32781 19-87 limits assumed) above
The description is as above.

The target of experiment [20] is T18, hCA-IX PG domain fragment #12 (aa …). Described as above.
Experiment [21] addresses T21, hCA-IX PG domain fragment #13 (aa 107-140) displayed on yeast as Aga2-HA-CA9-MYC (pPNL6), clone 13 A + B (human, UniProt P32781 19-87 (Saccharomyces cerevisiae entry)).
T21 construct: not shown: HA tag; MYC tag
The experiment is described as above.

For experiment [22], the target named is T19, hCA-IX PG domain fragment #14 (aa …). The description is as above.
Experiment [23] deals with T22, dimeric CA-IX extracellular domain (ECD) from mouse (mouse, UniProt Q8VHB5 32-390).
T22 construct: extracellular domain
T22 sequence (Q8VHB5 32-390): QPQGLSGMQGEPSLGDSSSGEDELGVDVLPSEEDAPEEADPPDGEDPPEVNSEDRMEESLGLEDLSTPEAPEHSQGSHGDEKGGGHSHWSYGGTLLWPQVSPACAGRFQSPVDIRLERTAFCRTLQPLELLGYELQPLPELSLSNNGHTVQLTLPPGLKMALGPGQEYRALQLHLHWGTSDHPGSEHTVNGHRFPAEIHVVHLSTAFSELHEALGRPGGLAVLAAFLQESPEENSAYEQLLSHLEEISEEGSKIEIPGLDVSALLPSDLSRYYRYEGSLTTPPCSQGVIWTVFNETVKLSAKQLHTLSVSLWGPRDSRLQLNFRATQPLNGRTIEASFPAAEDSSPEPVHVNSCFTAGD
The experiment can be described thus: SPR, antibody captured by anti-human Fc, specific binding yes/no.

Experiment [24] addresses T15, hCA-IX fragment 8 (aa 38-414, +PG+CA+) …. The experiment in a line: YSD whole yeast cell ELISA, native, normalised to anti-MYC; native fragment on yeast (Table 7).

T1 sequence (P22748 19-283 limits assumed): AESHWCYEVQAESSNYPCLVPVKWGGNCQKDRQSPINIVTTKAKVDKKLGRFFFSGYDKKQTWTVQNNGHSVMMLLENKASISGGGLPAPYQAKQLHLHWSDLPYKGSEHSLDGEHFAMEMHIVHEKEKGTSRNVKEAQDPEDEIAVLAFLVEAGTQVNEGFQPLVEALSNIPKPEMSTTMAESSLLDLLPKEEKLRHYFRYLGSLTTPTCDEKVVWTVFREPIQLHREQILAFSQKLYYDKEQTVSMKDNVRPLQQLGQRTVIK
T4 sequence (Q8VHB5 32-389 limits assumed): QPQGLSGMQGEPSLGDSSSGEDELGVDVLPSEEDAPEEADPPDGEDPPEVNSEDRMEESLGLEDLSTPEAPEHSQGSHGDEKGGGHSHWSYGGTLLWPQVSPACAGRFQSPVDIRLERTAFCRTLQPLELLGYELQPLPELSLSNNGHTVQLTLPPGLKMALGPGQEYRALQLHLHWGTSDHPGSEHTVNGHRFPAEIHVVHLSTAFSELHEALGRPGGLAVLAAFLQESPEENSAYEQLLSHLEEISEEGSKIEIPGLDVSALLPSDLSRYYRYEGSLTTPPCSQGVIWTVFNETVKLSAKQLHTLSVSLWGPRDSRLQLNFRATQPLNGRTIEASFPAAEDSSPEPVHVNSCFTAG
T18 sequence (P32781 19-87 limits assumed, chain 1 of 2): as the sequence (P32781 19-87 limits assumed) above
T18 sequence (chain (part 2 of 2), as listed by the source limits assumed, chain 2 of 2): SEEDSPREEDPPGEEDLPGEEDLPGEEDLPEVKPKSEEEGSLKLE
T15 sequence (P32781 19-87 limits assumed, chain 1 of 2, other chains not shown): as the sequence (P32781 19-87 limits assumed) above
T16 sequence (P32781 19-87 limits assumed): as above
T21 sequence (P32781 19-87 limits assumed, chain 1 of 2): as the sequence (P32781 19-87 limits assumed) above
T21 sequence (chain (part 2 of 2), as listed by the source limits assumed, chain 2 of 2): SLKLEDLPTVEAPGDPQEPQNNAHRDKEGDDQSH
T12 sequence (P32781 19-87 limits assumed): as the sequence (P32781 19-87 limits assumed) above
T5 sequence (O43570 25-301): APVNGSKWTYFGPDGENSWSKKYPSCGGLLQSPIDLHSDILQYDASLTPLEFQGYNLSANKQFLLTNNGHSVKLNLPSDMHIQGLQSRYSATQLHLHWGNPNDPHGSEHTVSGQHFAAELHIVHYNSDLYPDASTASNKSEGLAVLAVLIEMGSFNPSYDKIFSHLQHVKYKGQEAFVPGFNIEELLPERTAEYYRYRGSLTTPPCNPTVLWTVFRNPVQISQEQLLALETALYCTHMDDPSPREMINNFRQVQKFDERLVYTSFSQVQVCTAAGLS

B1: c11H9 (chimeric 11H9, human IgG1 / human kappa 1) (antibody, V domains shown)
VH: EVQLVESGGRLVQPKGSLKLSCAASGFTFNTYAMYWIRQAPGKGLEWVARIRSKSNNYAIYYADSVKDRFTISRDDSQSMLYLQMNNLKTEDTAMYYCVRGWDWFAYWGQGTPVTVSA
VL: DVVMTQTPLSLPVSLGDQASISCRSSQSLVHSNGNTYLHWYLQKPGQSPKLLIYKVSNRFSGVPDRFSGSGSGTDFTLKISRVEAEDLGVYFCSQNTHVPPTFGGGTKLEIKR
notes: Expressed in CHO cells; also called chimeric (c) 11H9; c1H9
Consider B1, for which the binding result in the experiment with rhCA-IV is on record as “no binding (tested: 100 nM)”; with rhCA-XII, “no binding (tested: 100 nM)”; in the experiment with rhCA-XIV, “no binding (tested: 100 nM)”; with rmCA-IX, “no binding (tested: 100 nM)”; in experiment [1], “no binding (tested: 100 nM)”; in [2] it was “no binding”. Moreover, the binding result in experiment [3], in [4], in experiment [5], in experiment [6], in experiment [7] and in experiment [8] was “no binding” throughout. In addition, the binding result was “no binding” in experiment [9]; “binds” in experiment [10]; “binds” in experiment [11]; “binds” in [12]; “binds” in [13]; “binds” in experiment [14]. The binding result in [15] is on record as “binds”.

B2: c2C7 (chimeric 2C7, human IgG1 / human kappa 1) (antibody, V domains shown)
VH: QVQLQQSGPELVKPGASVRISCKASGFTFTSCYIHWMKQRPGQGLEWIGWIYPGNGNTKYNEIFKGRATLTTDKSSSTAYMQLSSLTSEDSAVYFCARGDTTANTMDYWGQGTSVTVSS
VL: DIQMTQSPASLSASVGETVTITCRASGNIHNYLAWYQQKQGKSPQLLVYNTITLADGVPSRFSGSGSGTQYSLKINSLQPEDFGSYYCQHFWNIPFTFGAGTKLELKR
notes: Expressed in CHO cells
For the molecule B2, the binding result is “no binding” in experiment [16]; “no binding (tested: 100 nM)” with rhCA-IV; “no binding (tested: 100 nM)” in the experiment with rhCA-XII; “no binding (tested: 100 nM)” with rhCA-XIV; “no binding (tested: 100 nM)” with rmCA-IX; “no binding” in experiment [2]. In addition, the binding result in experiment [3], in [4], in experiment [5], in experiment [17], in experiment [18] and in experiment [6] was “no binding” in each case. In addition, the binding result in experiment [19], in experiment [7], in experiment [9], in [20], in experiment [21] and in [22] was “no binding” each time. Moreover, the figures for the binding result in experiment [23] and in experiment [24] were “no binding” and “binds”, respectively.
